Holding throughout (settings): both partners purified
Assay [1] has as its target T1, full-length Sis1 (residues 1–352), Sis1_(1–352) (S. cerevisiae, UniProt P25294 1-352).
T1 construct: Sis1, class B J-domain protein of S. cerevisiae, residues 1-352 (352 residues long); J-domain 1-72, GF 73-121, GM 122-178, CTDI 179-257, CTDII 258-335, dimerization domain 336-352; 15N- or 2H/15N-labelled; also called 15N-Sis1_(1–352); 2H-15N-Sis1_(1–352)
T1 sequence (looked up): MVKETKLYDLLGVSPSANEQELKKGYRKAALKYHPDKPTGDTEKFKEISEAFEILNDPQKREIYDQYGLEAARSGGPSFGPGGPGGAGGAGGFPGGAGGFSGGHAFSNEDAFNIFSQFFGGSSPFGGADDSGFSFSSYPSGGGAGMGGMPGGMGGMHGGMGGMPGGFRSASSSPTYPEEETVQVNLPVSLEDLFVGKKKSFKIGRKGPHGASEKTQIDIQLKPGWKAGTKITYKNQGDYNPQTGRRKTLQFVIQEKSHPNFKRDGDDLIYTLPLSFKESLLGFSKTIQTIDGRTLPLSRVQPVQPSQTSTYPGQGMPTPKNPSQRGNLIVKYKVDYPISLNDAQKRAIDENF
Kind of assay: NMR titration; paramagnetic relaxation enhancement: Sis1(1-352) with TEMPO-labeled EEVD peptide, TROSY spectra, paramagnetic against diamagnetic (reduced with ascorbate) intensity ratio.

The target of assay [2] is T2, Sis1_(1–81), J-domain of Sis1 (residues 1–81) (S. cerevisiae, UniProt P25294 1-81).
T2 construct: Sis1, class B J-domain protein of S. cerevisiae, residues 1-81: J-domain (1-72) and part of the GF region (73-81); 15N-labelled for HSQC, 13C/15N-labelled for the structure; also called 15N-Sis1_(1–81)
T2 sequence (looked up): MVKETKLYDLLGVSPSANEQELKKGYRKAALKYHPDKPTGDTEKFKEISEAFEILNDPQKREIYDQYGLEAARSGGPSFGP
The assay can be described thus: NMR titration; paramagnetic relaxation enhancement: 15N-Sis1(1-81) titrated with TEMPO-labeled …, 1H-15N HSQC at 900 MHz; diamagnetic sample after reduction with 3 mM ascorbic acid; intensity ratio Ipara/Idia.

Assay [3] deals with T1, full-length Sis1 (residues 1–352), …. Kind of assay: NMR titration; 1H-15N TROSY of 0.3 mM 15N-Sis1(1-352) free and with GPTIEEVD (1:4 protein:peptide), CSP; 25 mM Tris-HCl pH 7.5, 200 mM NaCl, 10% D2O, 303 K.

Ends that are not written are not given here.

B1: TEMPO-labeled CGPTIEEVD peptide (TEMPO-EEVD) (peptide)
peptide: C(4‑maleimide‑TEMPO)GPTIEEVD
notes: N-terminal cysteine that carries the spin label; also called spin-labeled EEVD; paramagnetic EEVD peptide; source: synthetic peptide (GenOne Biotechnologies), labelled with 4-maleimide-TEMPO, HPLC (C18) purified
For B1, the binding result in assay [1] and in assay [2] was “binds” throughout.

B2: GPTIEEVD peptide (EEVD peptide, C-terminal motif of HSP70/Ssa1) (peptide)
peptide: GPTIEEVD
notes: also called Ssa1-EEVD; source: synthetic peptide (GenOne Biotechnologies, Rio de Janeiro)
With B2, the binding result in assay [3] was “binds”.

The record behind these values is article PMC11722011, “NMR Studies on the Structure of Yeast Sis1 and the Dynamics of Its Interaction with Ssa1-EEVD” (Molecules, 2024).
